# Data from paper PMC11607428, “Broadly conserved FlgV controls flagellar assembly and Borrelia burgdorferi dissemination in mice” (Nature Communications, 2024).
# B1: FlgV (BB0268), B. burgdorferi (natural protein)
# chain: MFISRELKYILLTSVSALFISAVLGLFCGLSFFTILVRSLLQFVFFFVIGLLIEYIFKKYLSNLFSTELSGNMENKPQDDKKSDKDFKENLDFQNKNSLYENSQNISSSGDFIEEVKKYKFETEDVSRGSDKNKKMSFIEDNDPKVVADAIKTLMSKKE
# notes: FlgV (BB0268) of Borrelia burgdorferi B31; ORF of 480 bp; antigen for the antibody was amino acids 58-159; two predicted transmembrane helices (amino acids 13 to 35 and 40 to 57); native flgV ORF amplified from B. burgdorferi A3 genomic DNA for the overexpression plasmid; Untagged protein; Strains, plasmids and primers are in Supplementary Data 1; also called bb0268 gene product; previously …
# Molecular target: the molecule itself
# Assay: immunoblot after SDS-PAGE (higher molecular weight band); total protein lysate of WT/pcon ++flgV (PA267) B. burgdorferi, log and stationary phase, boiled in Laemmli buffer with beta-mercaptoethanol, Tris-Glycine gel, probed with anti-FlgV
protein,measurement,value
B1,stoichiometry N,2
